This series concerns CN(CC(=O)O)C(=N)NP(=O)(O)O. The series can be described thus: Compound was tested for inhibition against Creatine kinase(CK). The conditions noted are these: Oryctolagus cuniculus.

Chain of Creatine kinase M-type (Homo sapiens), P06732 (P06732 whole entry): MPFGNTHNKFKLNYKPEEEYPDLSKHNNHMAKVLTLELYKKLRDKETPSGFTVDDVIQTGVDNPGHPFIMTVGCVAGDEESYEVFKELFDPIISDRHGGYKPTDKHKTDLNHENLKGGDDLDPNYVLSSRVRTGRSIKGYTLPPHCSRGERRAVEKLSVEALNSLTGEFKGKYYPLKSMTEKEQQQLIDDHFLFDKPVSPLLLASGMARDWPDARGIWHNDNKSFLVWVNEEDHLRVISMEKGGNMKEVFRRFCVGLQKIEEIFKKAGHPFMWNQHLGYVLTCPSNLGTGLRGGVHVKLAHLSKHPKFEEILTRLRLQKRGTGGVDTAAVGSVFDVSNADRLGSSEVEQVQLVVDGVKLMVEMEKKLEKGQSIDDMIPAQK

Usually Km stands for the concentration of substrate that gives half-maximal velocity. In the case of “Creatine kinase M-type (Homo sapiens), P06732”, the Km came out at 2500 µM.

For the origin of these results see ChEMBL document CHEMBL1150442, “Synthesis and creatine kinase inhibitory activity of non-hydrolyzable analogs of phosphocreatine” (Bioorg Med Chem Lett, 1997).
